This assay deals with natriuretic peptide receptor-B (NPR-B) on human aortic endothelial cells (human) (UniProt P20594). The assay is described as follows: cell-based or functional assay.
Chain of UniProt P20594 (P20594 23-1047): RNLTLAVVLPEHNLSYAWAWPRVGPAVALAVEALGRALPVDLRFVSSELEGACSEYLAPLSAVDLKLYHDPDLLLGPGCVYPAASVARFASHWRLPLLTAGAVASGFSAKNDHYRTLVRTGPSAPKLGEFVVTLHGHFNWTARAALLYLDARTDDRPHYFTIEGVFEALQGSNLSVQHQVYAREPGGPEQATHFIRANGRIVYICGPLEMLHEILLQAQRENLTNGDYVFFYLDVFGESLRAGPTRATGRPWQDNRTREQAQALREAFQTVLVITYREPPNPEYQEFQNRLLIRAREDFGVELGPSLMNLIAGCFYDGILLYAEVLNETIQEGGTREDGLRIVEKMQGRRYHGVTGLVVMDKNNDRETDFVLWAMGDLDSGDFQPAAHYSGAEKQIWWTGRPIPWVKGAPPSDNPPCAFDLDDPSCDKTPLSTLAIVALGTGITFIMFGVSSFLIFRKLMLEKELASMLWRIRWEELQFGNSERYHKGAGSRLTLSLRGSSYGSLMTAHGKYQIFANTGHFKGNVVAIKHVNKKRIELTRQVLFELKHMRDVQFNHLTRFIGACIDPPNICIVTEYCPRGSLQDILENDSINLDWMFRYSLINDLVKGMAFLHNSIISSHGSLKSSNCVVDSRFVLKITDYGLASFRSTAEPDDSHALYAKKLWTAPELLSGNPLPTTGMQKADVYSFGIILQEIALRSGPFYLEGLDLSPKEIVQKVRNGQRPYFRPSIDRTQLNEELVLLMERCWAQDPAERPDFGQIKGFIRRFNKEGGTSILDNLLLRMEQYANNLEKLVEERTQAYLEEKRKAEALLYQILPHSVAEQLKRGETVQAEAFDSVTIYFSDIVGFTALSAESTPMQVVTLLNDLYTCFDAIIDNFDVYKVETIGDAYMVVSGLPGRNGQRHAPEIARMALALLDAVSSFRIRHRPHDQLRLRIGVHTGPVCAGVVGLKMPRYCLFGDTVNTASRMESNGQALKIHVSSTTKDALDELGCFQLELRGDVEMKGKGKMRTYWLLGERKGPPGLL

As for “human CNP (from UniProt P23582 74-126) (peptide)”, the cGMP in HAEC with 10^-6 M CNP in the presence of the NPR-B antibody (1:100) stood at 0.08 pmol/mL and the cGMP in HAEC with 10^-6 M CNP, no antibody is 0.17 pmol/mL.
